Assay results reported in patent US20210403586A1, “MUTANT OF RANKL AND PHARMACEUTICAL COMPOSITION COMPRISING SAME FOR PREVENTING OR TREATING OSTEOPOROSIS” (INDUSTRY-ACADEMIC COOPERATION FOUNDATION CHOSUN UNIVERSITY, priority 2018, published 2021).

How the values were obtained:
RANK and LGR4 signaling = experiment: Western blots of RANK and LGR4 signaling pathway proteins, RANKL variants; format: cell-based, mouse
Experimental: Proteins were separated by SDS-PAGE and electropermeated into a nitrocellulose membrane (Bio-Rad). After blocking the membrane with 5% (weight/volume) skim milk in TBST [10 mM Tris (pH 7.5), 150 mM NaCl, 0.1% (vol/vol) Tween 20], each mouse serum for primary antibody in the blocking solution was examined. The membrane was washed three times with Tris buffered saline. […] peroxidase (HRP)-conjugated secondary antibody was diluted 1:5000 with TBST in 1% (wt/vol) skim milk powder. ECL_system (Amersham Pharmacia Biotech) was used as the membrane.
Primary antibodies: AKT (Cell Signaling Technology, 1:1000), phospho-AKT (Cell Signaling Technology, #9271S, 1:1000), p38 (Cell Signaling Technology, 9212S, 1:1000), phospho-p38 (Cell Signaling Technology, #9211S, 1:1000), ERK (Cell Signaling Technology, 9102S, 1:1000), phospho-ERK (Cell Signaling Technology, #9101S, 1:1000), JNK (Cell Signaling Technology, 9252S, 1:1000), phosphoJNK (Cell Signaling Technology, #9251S, 1:1000), GSK-3β (Cell Signaling Technology, 9315S, 1:1000), phosphoGSK-3β (Cell Signaling Technology, #9336S, 1:1000), Src (Cell Signaling Technology, 2108S, 1:1000), phosphoSrc (Cell Signaling Technology, #2105S, 1:1000), NF-KB p65 (Cell Signaling Technology, #3034, 1:1000), phosphop65 (Cell Signaling Technology, #3031, 1:1000), RANK (Cell Signaling Technology, 4845S, 1:1000), Gaq (Cell Signaling Technology, 14373S, 1:1000), LGR4 (MyBioSource, MBS468030, 1:500), 20112360C-1, and GAPDH (Santa-Cruz Biotechnology, 1:2500).
To investigate the interaction of mRANKL variants and RANK, the co-immunoprecipitation (Co-IP) assays were carried out using mRANKL-WT/mRANKL-MT3 and RANK/LGR4 (FIG. 12A). In addition, wild-type RANKL induced MAPK, AKT, NF-κB p65, and GSK-3 phosphorylation, which is involved in LGR4 signaling (FIG. 12B).

wtRANKL-induced mouse = experiment: mtRANKL immunization in wtRANKL-induced osteoporosis mice, micro-CT; format: in vivo
Experimental: The right femur of each mouse subjected to each experiment was incised and CT imaging was performed using a Quantum GX pCT imaging system (PerkinElmer, Hopkinton, Mass., USA) located at the Korea Basic Science Institute in Gwangju. As for the X-ray source, the field of view was set to 45 mm, 90 kV and […] (voxel size, 90 μm; scanning time, 14 minutes). CT imaging was performed using a Quantum GX 3D Viewer software. After scanning, image segmentation was performed in Analyze (AnalyzeDirect, Overland Park, Kans., USA). Briefly, the legs were segmented using semi-automatic and manual tools (e.g., object extractor, area expansion, and object separator) using volume editing tools. Then, a 3D rendering of the leg was created, and bone mineral density (BMD), bone volume (BV), bone volume percentage (%), and trabecular thickness were calculated using the ROI tools.
(§1) 17-week-old […] BALB/c mice were equally divided into 3 groups. The group was divided into a negative control group in which PBS was intraperitoneally injected, a group in which only wtRANKL was injected, and a group in which wtRANKL was injected after immunization with mtRANKL for 52 days. mtRANKL was injected after mixing with an aluminum hydroxide adjuvant. The immunization process started with 1st immunization of mtRANKL at 52 days, 2nd immunization at 39 days, 3rd immunization at 14 days each before injection of wtRANKL, and a total of 3 immunizations was performed. The amount of mtRANKL was 0.2 mg per mouse.
(§2) After 52 days, PBS was injected into the negative control group and wtRANKL was injected into the other two groups. Next day, wtRANKL was injected once more. wtRANK was subcutaneously injected (2.0 mg/kg). Serum was collected to determine the titer of anti-RANKL antibody. Then, after extracting tibias, the adhesive soft tissues of tibias were removed.
To examine whether RANKL has a bone destruction effect when RANKL was injected after immunization with mtRANKL, micro-CT analysis was performed by the method of Reference Example 6.

BMMs = experiment: F-actin ring formation assay; format: cell-based, mouse; conditions: mRANKL-MT3 150 ng/mL
Experimental: We used bone-resorption and F-actin ring formation assays to investigate osteoclast activity. To observe bone resorption in vitro, BMMs were cultured in Corning Osteo Assay Surface 96-well Multiple Well Plates (Sigma) with 30 ng/mL M-CSF and 75 ng/mL sRANKL (soluble RANKL; R&D Systems) or isolated RANKL for 6 days. Then, the plates were washed with pure water. To monitor actin ring formation, BMMs were grown on glass slides. After culture, the cells were fixed with 4% formalin, permeabilized with 0.5% Triton X100 in PBS for 5 min at room temperature, and incubated with 0.5 mg/mL TRITC-labelled phalloidin for 30 min. The cells were then rinsed with PBS. F-actin rings were visualized using a fluorescence ECLIPSE Ts2R microscope (Nikon, Tokyo, Japan).

RANKL = experiment: ELISA of serum RANKL levels; format: in vivo, mouse; conditions: wtRANKL 2.0 mg/kg s.c. to non-immunized mice, or to mice immunized with mtRANKL
Experimental: A commercially available enzyme immunoassay kit (R & D Systems, Minn., USA) was used to measure RANKL levels in the serum of mice according to the manufacturer's protocol. Absorbance (450 nm) was measured in a colorimetric microplate reader (BioTek, Winooski, USA). The reading of the absorbance was then subtracted from the reading at 570 nm.
as §1, §2

[1] = wtRANKL-injected mice vs mtRANKL-immunized mice with wtRANKL injection

B1: mRANKL-MT3: mouse RANKL mutant: K180R, D189I, R190K, H223F, H224Y; nucleic acid SEQ ID NO: 3 (protein, UniProt O35235 158-316, looked up, variant K180R D189I R190K H223F H224Y)
chain: KPEAQPFAHLTINAASIPSGSHRVTLSSWYHIKGWAKISNMTLSNGKLRVNQDGFYYLYANICFRFYETSGSVPTDYLQLMVYVVKTSIKIPSSHNLMKGGSTKNWSGNSEFHFYSINVGGFFKLRAGEEISIQVSNPSLLDPDQDATYFGAFKVQDID
In the case of B1, the GSK-3 phosphorylation (RANK and LGR4 signaling; BMMs, Western blot) is reported as “induced”, the “MAPK, AKT, and NF-κB p65 phosphorylation” value (RANK and LGR4 signaling; BMMs, Western blot) is reported as “lower” and the src phosphorylation (RANK and LGR4 signaling; mRANKL-MT3-induced BMMs vs mRANKL-WT induced BMMs) is reported as “significantly lower”. For the same molecule, the “bone volume and percentage of bone volume” value (wtRANKL-induced mouse; compared with PBS-treated mice) was “maintained at similar levels”, the BMD of tibias (wtRANKL-induced mouse; [1]) was 795.8 ± 11.9 mg/mL and the “trabecular bone architecture of proximal tibias (micro-CT)” value (wtRANKL-induced mouse; [1]) was “thicker fibers and higher density than the wtRANKL-injected mice”. For the same molecule, the F-actin ring formation (BMMs) was “no resorption pits or F-actin rings were observed” and the “level of RANKL in the blood (ELISA)” value (RANKL) was “eliminated”.
